Assay results: patent US11702469B2, “Recombinant EGFL7, EGFL7 antibodies, and uses thereof” (Ohio State Innovation Foundation, priority 2017, dated 2023)

Tests used:
AML cell lines = assay: Differentiation (CD11b expression) in AML cell lines; format: cell-based, human; details: vs IgG-treated controls
Experimental: FIG. 10. Induced differentiation in AML cell lines treated with anti-EGFL7. Differentiation analysis was evaluated by CD11b expression. CD11b is depicted as the ratio of the CD11b expression value in the @E7 treated samples to CD11b expression value of the IgG-treated controls. * indicates P<0.05, ** indicates P<0.01.
For the evaluation of apoptosis, cells were stained with Annexin V and 7-AAD as previously described^16, 21 For the evaluation of cell proliferation, AML cell lines were incubated with BrdU, fixed, permeabilized and stained with APC-conjugated anti-BrdU antibody, according to the instructions of the manufacturer (BD Biosciences) and as previously described^16, 21 The proliferating fraction of the cells (i.e., the BrdU positive cells) was evaluated with flow cytometry (LSRII, BD Biosciences). For cell differentiation analysis, cells were stained with an anti-CD11B antibody (BD Biosciences) and analyzed by flow cytometry.

[1] = tested on: non-small cell lung cancer; details: mouse, in vivo; cited from earlier work
THP-1 cells = assay: Differentiation (CD11B and CD14 staining), THP-1; format: cell-based, human; details: 96-hours post anti-EGFL7 treatment
Experimental: FIG. 24A-24G. EGFL7 prevents activation of NOTCH signaling in AML cells. (FIG. 24A) Overview of experiments using DLL4-FC and IgG-FC control coated plates to induce NOTCH activation. (FIG. 24B) THP-1 cells were pre-treated with 10 μM γ-secretase inhibitor (AVA), 100 μg/ml anti-EGFL7 antibody or 0.25 μM rEGFL7 for 30 min, then transferred to IgG-Fc or DLL4-Fc coated plates. After 4 h of incubation total RNA from THP-1 cells was extracted for qRT-PCR analysis of HES1 with β-ACTIN as internal control. ^###P<0.001 DLL4-FC vs IgG-FC; ***P<0.001 DLL4+AVA, DLL4+rEGFL7, and DLL4+anti-EGFL7 vs DLL4-FC. […] THP-1 cells were treated with the indicated concentration of anti-EGFL7 (@E7) then assessed for apoptosis using (FIG. 24D) AnnexinV+ staining and FACS; *P<0.05 (FIG. 24E) Immuno-blotting for PARP1 and Casp3 cleavage. (FIG. 24F) Cell differentiation was assessed by CD11B and CD14 staining 96-hours post anti-EGFL7 treatments; *P<0.05. (FIG. 24G) To determine whether activation of NOTCH by DLL4-Fc could be accentuated by anti-EGFL7 treatment, THP-1 cells were first treated with anti-EGFL7 (100 μg/ml) and then cultured on DLL4-FC or IgG-Fc coated plates and then assessed for apoptosis using AnnexinV+ staining and FACS. *P<0.05 DLL4-Fc and anti-EGFL7; vs DLL4-FC+anti-EGFL7. […]

CD34+CB cells = assay: CFU assay, CD34+ cord blood cells; format: cell-based; details: treated in vitro, vs IgG1 control
Experimental: FIG. 12. Recombinant EGFL7 stimulation leads to expansion of primary CFUs and secondary CFUs in human hematopoietic stem and progenitor cells (HSPCs). […] The number of colonies with more than 50 cells was counted under a light microscope. Right: Cells from the first round of CFU assays were harvested, rinsed with SFEM, and pooled. 5000 cells were then mixed with methylcellulose medium in the absence or presence of 0.25 μM recombinant human EGFL7 and plated onto 2 cm dishes for 10 days. The number of colonies with more than 50 cells was counted under a light microscope. […]
[…] After 10 days of culture, colonies were scored.
To assess the toxicity of Parsatuzumab on normal hematopoiesis, wild type (C57Bl/6J) mice were treated with Parsatuzumab (n=4) and IgG1 control (n=4) with the highest dose previously tested at 50 mpk twice a week for two weeks. Parsatuzumab targets both human and mouse EGFL7 protein. After two weeks of treatment, blood, spleen and BM were harvested and full phenotypic characterization was performed to assess toxicity. […] Full immunophenotypic examination of BM populations was also performed (data not shown due to space constraints). […] To functionally test the effect of Parsatuzumab on normal HSPCs, competitive repopulation BM transplantation (BMT) assays and CFU assays were performed. […]

B1: Parsatuzumab: Anti-human EGFL7 therapeutic antibody (Parsatuzumab) obtained from Creative Biolabs; blocking monoclonal antibody (antibody, chains of the INN, looked up, V domains shown)
VH: EVQLVESGGGLVQPGGSLRLSCAASGYTFIDYYMNWVRQAPGKGLEWVGDINLDNSGTHYNQKFKGRFTISRDKSKNTAYLQMNSLRAEDTAVYYCAREGVYHDYDDYAMDYWGQGTLVTVSS
VL: DIQMTQSPSSLSASVGDRVTITCRTSQSLVHINAITYLHWYQQKPGKAPKLLIYRVSNRFSGVPSRFSGSGSGTDFTLTISSLQPEDFATYYCGQSTHVPLTFGQGTKVEIK
- differentiation (CD11b expression) (AML cell lines): increased differentiation
- overall survival [1]: increased overall survival
- tumor size [1]: decreased tumor size
- CD11B and CD14 expression (THP-1 cells): increases were found in both these markers
- numbers and types of colonies, CB CD34+ cells (CD34+CB cells): no significant changes in the numbers or types of colonies
